The target in assay [1] is HA of H1N1 A/Puerto Rico/8/34-MA (influenza A virus). The assay is described as follows: cell-based or functional assay.
Another assay deals with HA of H3N2 A/HK/1/68 (influenza A virus, UniProt Q91MA7 17-530). The assay is described as follows: cell-based or functional assay.
For the next assay, the target named is HA of H7N7 A/PR8 H7N7-NY (influenza A virus). Put plainly: cell-based or functional assay.
Assay [2] has as its target HA of H3N2 A/Wisconsin/67/2005 (influenza A virus). Put plainly: cell-based or functional assay.
The target in assay [3] is HA of H3N2 A/Panama/2007/99 (influenza A virus). Put plainly: cell-based or functional assay.
Assay [4] has as its target HA of H3N2 A/HK/1/68-MA (influenza A virus). The assay is described as follows: cell-based or functional assay.
Assay [5] concerns the target HA of H4 A/WF/HK/MPA892/06 (influenza A virus). The assay is described as follows: cell-based or functional assay.
The target in assay [6] is HA of H10N7 A/Chick/Germany/N/49 (influenza A virus). Put plainly: cell-based or functional assay.
Assay [7] addresses HA of H5N1 A/PR8 H5N1 HK97 (influenza A virus). The assay is described as follows: cell-based or functional assay.
In another assay the target is HA of H7N9 A/Anhui/1/13 (influenza A virus). The assay is described as follows: cell-based or functional assay.
The target in assay [8] is hemagglutinin (HA) of influenza B/Brisbane/60/08 (Victoria) (influenza B virus). Put plainly: cell-based or functional assay.
For assay [9], the target named is hemagglutinin (HA) of influenza virus H1N1 A/Puerto Rico/8/34-MA (influenza A virus). The assay is described as follows: cell-based or functional assay.
Assay [10] concerns the target hemagglutinin (HA) of influenza virus H5N1 A/Vietnam/1194/04 (influenza A virus). The assay is described as follows: cell-based or functional assay.
In assay [11] the target is hemagglutinin (HA) of influenza virus H3N2 A/Wisconsin/67/05 (influenza A virus). Put plainly: cell-based or functional assay.
Assay [12] deals with hemagglutinin (HA) of influenza virus H1N1 A/California/07/09 (influenza A virus). The assay is described as follows: cell-based or functional assay.
Assay [13] concerns the target recombinant HA of H1N1 A/New Caledonia/20/1999 (influenza A virus, UniProt Q289M7 18-565). Put plainly: biolayer interferometry (Octet), steady-state fit, geometric mean. (In general: In BLI a coated tip is dipped into the sample, and binding shifts an interference pattern.)
Assay [14] has as its target HA of H7N7 A/Netherlands/219/2003 (influenza A virus, UniProt P36346 19-563). The assay is described as follows: AlphaLISA competition vs CR9114.
Assay [15] addresses HA of H3N2 A/HK/1/68-MA (influenza A virus). Put plainly: cell-based or functional assay. The source holds these as a separate data set.
Assay [16] has as its target HA of B/Malaysia/2506/04 (Victoria) (influenza B virus). Put plainly: cell-based or functional assay.
For assay [17], the target named is HA of B/Harbin/7/94 (Yamagata) (influenza B virus). The assay is described as follows: cell-based or functional assay.

A word on the Kd: it is the constant that tells how readily two partners part at equilibrium. Broadly, the pIC50 is −log10 of the IC50, conventionally taken in molar units.

Substitutions are numbered along the chain they refer to. Read-outs that look alike come from different tables or passages of the source. Where only a bound is given, the exact number is not on record here.

B1: SD1046 (VHH)
VHH: EVQLVESGGGLVQAGDSLRISCAASGRTLSIYSMGWFRQAPGKEREFVATIGWNSGRTFYPDSLKGRFTISRDNARNTLYLQMNNLRPEDTAVYYCAAAKGPLRLSSQADYWGQGTQVTVSS
For B1, the VNA titer in [1] is above 1000 nM; with HA of H3N2 A/HK/1/68, 202 nM; in the assay with HA of H7N7 A/PR8 H7N7-NY, 25.9 nM; in [2], above 1000 nM; in assay [3], above 1000 nM; with HA of H3N2 A/HK/1/68-MA [4], 26.4 nM. Also, the VNA titer was 34.3 nM in assay [5], 34.3 nM in assay [6], above 1000 nM in assay [7] and 46.1 nM with HA of H7N9 A/Anhui/1/13.

B2: SD3075 (VHH)
VHH: EVQLVESGGGLVQPGGSLRLSCAASGLSLDTYAVGWFRQAPGKEREGVSCISSGHGITYYADSVKGRFTISTDNSKNTLYLQMNSLRAEDTAVYYCATESRYYCSDNWPAPQRYIYWGQGTLVTVSS
In the case of B2, in assay [8], the “VNA IC50” value was above 1000 nM.

B3: SD3076 (VHH)
VHH: B2 VHH with I57L
Regarding B3, the “VNA IC50” value in assay [8] was above 1000 nM.

B4: SD3100 (VHH)
VHH: B2 VHH with A24I, I57A
With B4, the “VNA IC50” value in assay [8] was above 1000 nM.

B5: SD3093 (VHH)
VHH: B2 VHH with A24I, I57M, L79V
For the molecule B5, the “VNA IC50” value in assay [8] was found to be 32 nM.

B6: SD3104 (VHH)
VHH: B2 VHH with A24I, I57N
In the case of B6, the “VNA IC50” value in [8] is above 1000 nM.

B7: SD3092 (VHH)
VHH: B2 VHH with A24I, I57M
Turning to B7, in assay [8], the “VNA IC50” value stood at 51 nM.

B8: SD3103 (VHH)
VHH: B2 VHH with A24I, I57D
Consider B8, for which the “VNA IC50” value in assay [8] was above 1000 nM.

B9: SD3101 (VHH)
VHH: B2 VHH with A24I, I57S
Take B9: in [8], the “VNA IC50” value was above 1000 nM.

B10: SD3102 (VHH)
VHH: B2 VHH with A24I, I57Q
Regarding B10, the “VNA IC50” value in [8] was above 1000 nM.

B11: MD1210 (bispecific antibody)
chain: EVQLVESGGGLVQAGGSLKLSCAASGRTYAMGWFRQAPGKEREFVAHINALGTRTYYSDSVKGRFTISRDNAKNTEYLEMNNLKPEDTAVYYCTAQGQWRAAPVAVAAEYEFWGQGTQVTVSSAAAGGGGSGGGGSGGGGSGGGGSGGGGSGGGGSGGGGSEVQLVESGGGLVQPGGSLRLSCAVSISIFDIYAMDWYRQAPGKQRDLVATSFRDGSTNYADSVKGRFTISRDNAKNTLYLQMNSLKPEDTAVYLCHVSLYRDPLGVAGGMGVYWGKGALVTVSS
Regarding B11, the neutralization titer in assay [9] worked out at 21.9 nM; in assay [10] it was 21.4 nM; in assay [11] it was 118 nM; in [12], 2.5 nM. In addition, the Kd in assay [13] came out at 0.7 nM.

B12: SD1014 (VHH)
VHH: EVQLVESGGGLVQAGGSLTLSCAASGRTYAMAWFRQAPGKEREFVAHINALGTRTYYSDSVKGRFTISRDNAKNTEYLQMNSLNPEDTAVYYCAAGGQWRAAPVADAAQYDFWGQGTQVTVSS
notes: llama sdAb
In assay [14], B12 displayed a pIC50 of 9.2. Moreover, the VNA titer (in [1]; in the assay with HA of H3N2 A/HK/1/68-MA [4]) was above 1000 nM each time.

B13: SD1017 (VHH)
VHH: B12 VHH with T19R, T55A, K62E, E76G, N84E, Y92V
Take B13: the VNA titer (in [1]; in assay [2]; with HA of H3N2 A/HK/1/68-MA [4]) was above 1000 nM throughout.

B14: MD1212 (VHH)
chain: EVQLVESGGGLVQPGGSLRLSCAVSISIFDIYAMDWYRQAPGKQRDLVATSFRDGSTNYADSVKGRFTISRDNAKNTLYLQMNSLKPEDTAVYLCHVSLYRDPLGVAGGMGVYWGKGALVTVSSAAAGGGGSGGGGSGGGGSGGGGSGGGGSGGGGSGGGGSEVQLVESGGGLVQPGGSLRLSCAVSISIFDIYAMDWYRQAPGKQRDLVATSFRDGSTNYADSVKGRFTISRDNAKNTLYLQMNSLKPEDTAVYLCHVSLYRDPLGVAGGMGVYWGKGALVTVSS
Consider B14, for which the neutralization titer was 11.7 nM in [9], 14.8 nM in [10], 49.5 nM in [11] and 3.7 nM in assay [12]. For the same molecule, the Kd in assay [13] was found to be 1.4 nM.

B15: MD1211 (bispecific antibody)
chain: EVQLVESGGGLVQPGGSLRLSCAVSISIFDIYAMDWYRQAPGKQRDLVATSFRDGSTNYADSVKGRFTISRDNAKNTLYLQMNSLKPEDTAVYLCHVSLYRDPLGVAGGMGVYWGKGALVTVSSAAAGGGGSGGGGSGGGGSGGGGSGGGGSGGGGSGGGGSEVQLVESGGGLVQAGGSLKLSCAASGRTYAMGWFRQAPGKEREFVAHINALGTRTYYSDSVKGRFTISRDNAKNTEYLEMNNLKPEDTAVYYCTAQGQWRAAPVAVAAEYEFWGQGTQVTVSS
For B15, the neutralization titer in [9] stood at 9.9 nM; in assay [10] it was 7.6 nM; in assay [11], 19.3 nM; in assay [12] it was 4 nM. Besides, the Kd in assay [13] came out at 1.7 nM.

B16: SD1049 (VHH)
VHH: EVQLVESGGGLVQAGGSLRLSCAASGRTLSLYSVGWFRQAPGKEREFVATIGWNSGRTFYVDSMKGRFTISRDNAKNTVYLQMNDLKVEDTAVYYCAAAKGPLRLSNQADYWGQGTQVTVSS
Consider B16, for which the VNA titer is above 1000 nM in [1] and 76.1 nM with HA of H3N2 A/HK/1/68-MA [4].

B17: SD1034 (VHH)
VHH: EVQLVESGGGLVQAGGSLRLSCAASGTIFGIRVNTMGWYRQAPGEQRELVATITRSGGTNYADSVKDRFTISGDFAKDTVYLQMMHLKPEDTAVYYCNGRWALTDYWGQGTQVTVSS
In the assay with HA of H3N2 A/HK/1/68-MA [15], B17 registered a VNA titer above 1000 nM.

B18: MD1209 (VHH)
chain: EVQLVESGGGLVQAGGSLKLSCAASGRTYAMGWFRQAPGKEREFVAHINALGTRTYYSDSVKGRFTISRDNAKNTEYLEMNNLKPEDTAVYYCTAQGQWRAAPVAVAAEYEFWGQGTQVTVSSAAAGGGGSGGGGSGGGGSGGGGSGGGGSGGGGSGGGGSEVQLVESGGGLVQAGGSLKLSCAASGRTYAMGWFRQAPGKEREFVAHINALGTRTYYSDSVKGRFTISRDNAKNTEYLEMNNLKPEDTAVYYCTAQGQWRAAPVAVAAEYEFWGQGTQVTVSS
Consider B18, for which the neutralization titer was 221 nM in [9], below 1000 nM in assay [10], 109 nM in assay [11] and 10.1 nM in assay [12]. For the same molecule, in [13], the Kd is 1.9 nM.

B19: SD1086 (VHH)
VHH: EVQLVESGGGLVQAGGSLRLSCTASGSISSIDYMRWYRQYPGKHRELVATITSGGAADSRDSVKGRFTVSRGNAANTMYLQMNNLKPEDTAVYYCNAYGLEIGAHWGRGTQVTVSS
With B19, the VNA titer in [16] and in [17] was above 1000 nM in each case.

B20: SD1048 (VHH)
VHH: EVQLVESGGGVVQPGGSLRLSCVASGRTSSMYSIGWFRQAPGKEREFVAVIGWYSGRTFYTDSMKGRFTISRDNARNTVYLQMNSLKPEDTAVYYCAAANGPLRLSNQADYWGQGTQVTVSS
For B20, the VNA titer in assay [1] was above 1000 nM; with HA of H7N7 A/PR8 H7N7-NY it was 93 nM; in assay [2] it was above 1000 nM; in assay [3], above 1000 nM; with HA of H3N2 A/HK/1/68-MA [4] it was 110 nM; in assay [5], 34.3 nM. In addition, the figures for the VNA titer in assay [6] and in assay [7] were 34.3 nM and above 1000 nM, respectively.

The record behind these values is patent publication US20190359693A1 (Janssen / Centocor, published 2019).
